Laboratory results published in PMC4743056.

Tests used:
Assay in all cases: fluorescence polarization
hPRDM9A ZnF8-11 = hPRDM9A ZnF8-11 (Homo sapiens, allele A, UniProt Q9NQV7 717-830)
hPRDM9A ZnF8-13 = hPRDM9A ZnF8-13 (Homo sapiens, allele A, UniProt Q9NQV7 717-894)
[1] = target: hPRDM9A ZnF8-12 (allele A) (Homo sapiens, allele A, UniProt Q9NQV7 717-858)
[2] = target: hPRDM9 ZnF8-12 N789H (allele L20) (Homo sapiens, allele L20, UniProt Q9NQV7 717-858, N790H)
hPRDM9 ZnF8-12 N789H (allele L20), sequence (Q9NQV7 717-858 N790H): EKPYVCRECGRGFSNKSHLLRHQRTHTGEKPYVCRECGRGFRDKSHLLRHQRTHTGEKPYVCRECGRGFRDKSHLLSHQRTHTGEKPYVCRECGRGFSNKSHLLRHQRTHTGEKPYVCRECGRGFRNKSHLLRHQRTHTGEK

hPRDM9A ZnF8-12 (allele A), sequence (Q9NQV7 717-858): as the sequence (Q9NQV7 717-858 N790H) above, with H74N counted along it
hPRDM9A ZnF8-13, sequence (Q9NQV7 717-894): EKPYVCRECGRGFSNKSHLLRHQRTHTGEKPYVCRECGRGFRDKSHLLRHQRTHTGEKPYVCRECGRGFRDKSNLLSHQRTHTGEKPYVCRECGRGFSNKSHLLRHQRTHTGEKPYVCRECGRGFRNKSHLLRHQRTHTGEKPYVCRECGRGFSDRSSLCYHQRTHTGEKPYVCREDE
hPRDM9A ZnF8-11, sequence (Q9NQV7 717-830): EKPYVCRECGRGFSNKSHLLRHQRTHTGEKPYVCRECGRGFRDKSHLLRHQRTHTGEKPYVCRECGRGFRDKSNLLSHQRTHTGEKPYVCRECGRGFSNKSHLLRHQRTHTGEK

B1: THE1B 24-bp (dsDNA)
DNA 1: GAGGCCTCCCTAGCCACGTGGAAC
DNA 2: GTTCCACGTGGCTAGGGAGGCCTC
**Q.** What does the source list for B1?
**A.** binding signal (hPRDM9A ZnF8-11): ~12 fold lower affinity than ZnF8-12; binding signal (hPRDM9A ZnF8-13): ~1 fold (similar to ZnF8-12)

B2: THE1B with 5mC at position 17 bottom strand (dsDNA)
DNA 1: GAGGCCTCCCTAGCCACGTGGAAC
DNA 2: GTTCCACGTGGCTAGGGAGGCCTC
modifications: 5-methylcytosine at bottom strand base 7 (C of G:C bp 17)
**Q.** For B2, which binding signal [1] is on record?
**A.** ~1 fold (same as unmethylated)

B3: THE1B T:A to C:G (dsDNA)
DNA 1: GAGGCCTCCCCAGCCACGTGGAAC
DNA 2: GTTCCACGTGGCTGGGGAGGCCTC
**Q.** Does B3 bind [2]?
**A.** binds
